Laboratory results as given in patent publication US20140120095A1 (Boehringer Ingelheim, published 2014).

How the values were obtained:
[1] = biological target: T1, recombinant human VEGF165 (human, UniProt P15692-4 27-191, biotinylated in the competition assays); assay: AlphaScreen, hVEGF165/hVEGFR2-Fc competition; parameters: % inhibition: concentration or dose not given beside the values
T1 construct: Bought protein; also called hVEGF165; rhVEGF165

[2] = biological target: T2, recombinant human DLL4 (C-terminally His-tagged extracellular domain, R&D Systems) (human, UniProt Q9NR61 25-522, biotinylated in the competition ELISA); assay: SPR (Biacore); summary table
T2 construct: also called rhDLL4; hDLL4

[3] = biological target: T3, recombinant mouse DLL4 (C-terminally His-tagged extracellular domain, R&D Systems) (mouse, UniProt Q9JI71 27-532); assay: ProteOn off-rate screen, periplasmic extract, coated mouse DLL4
T3 construct: extracellular domain; also called rmDLL4; mDLL4
Description: (§1) In a first cycle, amino acid substitutions are introduced randomly in both framework (FW) and complementary determining regions (CDR) using the error-prone PCR method. […] After a polish step, PCR products are inserted via unique restriction sites into a vector designed to facilitate phage display of the VHH library. Consecutive rounds of in-solution selections are performed using decreasing concentrations of biotinylated recombinant human DLL4 (biot-rhDLL4) and trypsin elutions. Affinity-driven selections in a third round using cold rhDLL4 (at least 100× excess over biot-rhDLL4) are also performed. No selections on murine DLL4 are included as (conservation of) cross-reactivity is assessed at the screening level. Individual mutants are produced as recombinant protein using an expression vector derived from pUC119, which contains the LacZ promoter, a resistance gene for ampicillin, a multiple cloning site and an ompA leader sequence (pAX50). E. coliTG1 cells are transformed with the expression vector library and plated on agar plates (LB+Amp+2% glucose). Single colonies are picked from the agar plates and grown in 1 mL 96-deep-well plates. VHH expression is induced by adding IPTG (1 mM). Periplasmic extracts (in a volume of ˜80 uL) are prepared according to standard methods and screened for binding to recombinant human and mouse DII4 in a ProteOn (BioRad, Hercules, Calif., USA) off-rate assay. In brief, a GLC ProteOn Sensor chip is coated with recombinant human DII4 on the “ligand channels” L2 and L4 (with L1/L3 as reference channel), while “ligand channels” […] is coated with mouse DII4. Periplasmic extract of affinity-matured clones is diluted 1/10 and injected across the “analyte channels” A1-A6. An average off-rate is calculated of the wild type clones present in the plate and served as a reference to calculate off-rate improvements.

[4] = biological target: T2, recombinant human DLL4 (C-terminally …); assay: competition ELISA hDLL4/hNotch1-Fc; summary table
[5] = biological target: T2, recombinant human DLL4 (C-terminally …); assay: ProteOn off-rate screen, periplasmic extract, coated human DLL4
Description: as §1

[6] = biological target: T2, recombinant human DLL4 (C-terminally …); assay: competition ELISA, biotinylated hDLL4 to coated hNotch1-Fc
[7] = biological target: T2, recombinant human DLL4 (C-terminally …); assay: SPR (Biacore), rhDLL4
Description: Kinetic analysis to determine the affinity of the DII4-VHH interaction is performed by Surface Plasmon Resonance (SPR) on a Biacore T100 instrument. […] Purified VHHs or Fab fragment are injected for 2 minutes at different concentrations (between 10 and 300 nM) and allowed to dissociate for 20 min at a flow rate of 45 μl/min. Between sample injections, the surfaces are regenerated with 10 mM glycine pH1.5 and 100 mM HCl. HBS-N (Hepes buffer pH7.4) is used as running buffer. If possible, data are evaluated by fitting a 1:1 interaction model (Langmuir binding) onto the binding curves. The affinity constant KD is calculated from resulting association and dissociation rate constants (kₐ) and […].

[8] = biological target: T4, mouse DLL4 overexpressed on cells (mouse, UniProt Q9JI71 27-686); assay: FMAT, labelled hNotch1-Fc on CHO-mDLL4, periplasmic extract
T4 construct: whole, on cells; also called CHO-mDLL4; CHO-mDII4
Description: (§2) All calculations are based on the FL1_total signal which comprises the average of the fluorescence per well times the number of counts per well.

[9] = biological target: T5, human DLL4 overexpressed on cells (human, UniProt Q9NR61 27-685); assay: FMAT, labelled hNotch1-Fc on CHO-hDLL4, periplasmic extract
T5 construct: full length human DLL4 on CHO or HEK293 cells; also called CHO-hDLL4; CHO-hDII4
Description: as §2

T1 sequence (P15692 other isoform, or with tags, fused parts or gaps): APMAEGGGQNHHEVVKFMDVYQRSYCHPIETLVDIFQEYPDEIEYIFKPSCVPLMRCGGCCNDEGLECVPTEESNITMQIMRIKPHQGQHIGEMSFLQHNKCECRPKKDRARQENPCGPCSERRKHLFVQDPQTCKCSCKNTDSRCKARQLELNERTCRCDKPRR
T4 sequence (Q9JI71 27-686): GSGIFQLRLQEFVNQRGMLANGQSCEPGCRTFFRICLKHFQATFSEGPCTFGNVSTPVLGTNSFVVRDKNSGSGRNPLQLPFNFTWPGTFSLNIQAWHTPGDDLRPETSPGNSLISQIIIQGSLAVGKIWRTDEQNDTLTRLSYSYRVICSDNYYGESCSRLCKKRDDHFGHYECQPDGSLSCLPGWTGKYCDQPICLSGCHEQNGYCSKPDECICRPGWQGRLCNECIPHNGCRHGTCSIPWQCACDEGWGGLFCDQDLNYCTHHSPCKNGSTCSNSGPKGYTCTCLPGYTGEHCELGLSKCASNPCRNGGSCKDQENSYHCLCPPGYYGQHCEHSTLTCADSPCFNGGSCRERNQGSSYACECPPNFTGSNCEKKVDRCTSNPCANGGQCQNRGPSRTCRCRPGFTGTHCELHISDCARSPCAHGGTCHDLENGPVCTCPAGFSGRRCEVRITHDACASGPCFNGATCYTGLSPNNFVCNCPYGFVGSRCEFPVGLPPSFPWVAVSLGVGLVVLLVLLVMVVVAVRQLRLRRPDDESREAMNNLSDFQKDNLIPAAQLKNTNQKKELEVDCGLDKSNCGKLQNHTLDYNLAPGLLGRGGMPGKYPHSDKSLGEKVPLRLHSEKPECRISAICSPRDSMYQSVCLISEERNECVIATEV
T3 sequence (Q9JI71 27-532): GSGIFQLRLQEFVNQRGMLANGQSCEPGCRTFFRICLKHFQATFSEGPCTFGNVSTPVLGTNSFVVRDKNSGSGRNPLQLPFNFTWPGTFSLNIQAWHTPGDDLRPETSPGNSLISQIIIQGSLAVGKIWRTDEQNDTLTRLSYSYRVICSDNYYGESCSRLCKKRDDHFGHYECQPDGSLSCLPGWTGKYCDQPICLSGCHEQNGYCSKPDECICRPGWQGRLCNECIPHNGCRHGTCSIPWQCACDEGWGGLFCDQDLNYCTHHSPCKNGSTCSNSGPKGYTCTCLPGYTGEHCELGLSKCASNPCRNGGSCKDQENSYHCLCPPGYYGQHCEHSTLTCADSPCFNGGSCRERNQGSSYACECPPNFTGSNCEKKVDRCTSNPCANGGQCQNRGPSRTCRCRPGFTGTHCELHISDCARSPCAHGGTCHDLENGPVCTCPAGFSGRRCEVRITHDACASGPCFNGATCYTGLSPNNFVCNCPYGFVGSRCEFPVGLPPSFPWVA

B1: VEGFBII111D05 (VHH)
VHH: EVQLVESGGGLVQTGGSLRLSCEASGRTFSSYSMGWFRQAPGKEREFVVAISKGGYKYDSVSLEGRFTISRDNAKNTVYLQINSLRPEDTAVYYCASSRAYGSSRLRLADTYEYWGQGTLVTVSS
- % inhibition [1]: 100%
- IC50 [1]: 0.209 nM

B2: VEGFBII111G06 (VHH)
VHH: EVQLVESGGGLVQPGGSLRLSCAASGRTFSSYSMGWFRQAPGKEREFVVAISKGGYKYDSVSLEGRFTISRDNAKNTVYLQMNSLRPEDTAVYYCASSRAYGSSRLRLADTYEYWGQGTLVTVSS
- % inhibition [1]: 100%
- IC50 [1]: 0.366 nM

B3: VEGFBII112D11 (VHH)
VHH: EVQLVESGGGLVQPGGSLRLSCEASGRTFSSYSMGWFRQAPGKEREFVVAISKGGYKYDSVSLEGRFTISRDNAKNTVYLQINSLRPEDTAVYYCASSRAYGSSRLRLADTYEYWGQGTLVTVSS
- % inhibition [1]: 100%
- IC50 [1]: 0.221 nM

B4: VEGFBII113A08 (VHH)
VHH: EVQLVESGGGLVQTGGSLRLSCEVSGRTFSSYSMGWFRQAPGKEREFVVAISKGGYKYDSVSLEGRFTISKDNAKNTVYLQINSLRPEDTAVYYCASSRAYGSSRLRLADTYEYWGQGTLVTVSS
- % inhibition [1]: 100%
- IC50 [1]: 0.253 nM

B5: VEGFBII113E03 (VHH)
VHH: EVQLVESGGGLVQTGDSLRLSCEVSGRTFSSYSMGWFRQAQGKEREFVVAISKGGYKYDSVSLEGRFTISKDNAKNTVYLQMNSLRPEDTAVYYCASSRAYGSSRLRLADTYEYWGQGTLVTVSS
- % inhibition [1]: 100%
- IC50 [1]: 0.29 nM

B6: VEGFBII114C09 (VHH)
VHH: EVQLVESGGGLVQPGDSLRLSCEVSGRTFSSYSMGWFRQAPGKEREFVVAISKGGYKYDSVSLEGRFTISKDNAKNTVYLQINSLRPEDTAVYYCASSRAYGSSRLRLADTYEYWGQGTLVTVSS
- % inhibition [1]: 100%
- IC50 [1]: 0.215 nM

B7: VEGFBII114D02 (VHH)
VHH: EVQLVESGGGLVQTGGSLRLSCEVSGRTFSSYSMGWFRQAPGKEREFVVAISKGGYKYDSVSLEGRFTISRDNAKNTVYLQINSLRPEDTAVYYCASSRAYGSSRLRLADTYEYWGQGTLVTVSS
- % inhibition [1]: 100%
- IC50 [1]: 0.199 nM

B8: VEGFBII114D03 (VHH)
VHH: EVQLVESGGGLVQTGDSLRLSCAVSGRTFSSYSMGWFRQAQGKEREFVVAISKGGYKYDSVSLEGRFTISKDNAKNTVYLQINSLRPEDTAVYYCASSRAYGSSRLRLADTYEYWGQGTLVTVSS
- % inhibition [1]: 100%
- IC50 [1]: 0.227 nM

B9: VEGFBII118E10 (VHH)
VHH: EVQLVESGGGLVQTGDSLRLSCEVSGRTFSSYSMGWFRQAQGKEREFVVAISKGGYKYDAVSLEGRFTISKDNAKNTVYLQINSLKPEDTAVYYCASSRAYGSSRLRLADTYEYWGQGTQVTVSS
- % inhibition [1]: 100%
- IC50 [1]: 0.189 nM

B10: DLLBII129A03 (VHH, not shown: small tags and cut ends)
VHH: EVQLVESGGGLVQAGGSLRLSCAASGRTFSSYAMAWFRQAPGKEREYVAAIRWSGGTAYYADSVQGRFTISRDNAKNTVYLQMNSLRPEDTAVYYCANRAPDTRLRPYLYDYWGQGTQVTVSS
- Kd [2]: 0.5 nM
- fold (off-rate vs DLLBII101G08) [3]: 18 fold
- koff [3]: 0.00038 s⁻¹
- IC50 [4]: 1.8 nM
- fold (off-rate vs DLLBII101G08) [5]: 19 fold
- koff [5]: 0.00012 s⁻¹
- IC50 [6]: 1.8 nM
- Kd [7]: 0.5 nM
- koff [7]: 0.00012 s⁻¹
- kon [7]: 210000 M⁻¹ s⁻¹

B11: DLLBII129H07 (VHH, not shown: small tags and cut ends)
VHH: EVQLVESGGGLVQAGGSLRLSCAASGRTFSSYAMAWYRQAPGKEREYVAAIRWSGGTAYYADSVQGRFTISRDNAKNTVYLQMNSLKPEDTAVYYCANRAPDTRLEPYEYDYWGQGTQVTVSS
- Kd [2]: 0.5 nM
- fold (off-rate vs DLLBII101G08) [3]: 27 fold
- koff [3]: 0.00025 s⁻¹
- IC50 [4]: 1 nM
- fold (off-rate vs DLLBII101G08) [5]: 30 fold
- koff [5]: 7.4e-05 s⁻¹
- IC50 [6]: 1 nM
- Kd [7]: 0.5 nM
- koff [7]: 7.3e-05 s⁻¹
- kon [7]: 160000 M⁻¹ s⁻¹

B12: DLLBII130B03 (VHH, not shown: small tags and cut ends)
VHH: EVQLVESGGGLVQAGGSLRLSCAASGRTFSSYAMAWYRQAPGKEREYVAAIRWSGGTAYYADSVQGRFTISRDNAKNTVYLQMNSLKPEDTAVYYCANRAPDTRLAPYLYDYWGQGTQVTVSS
- Kd [2]: 0.3 nM
- fold (off-rate vs DLLBII101G08) [3]: 20 fold
- koff [3]: 0.00024 s⁻¹
- IC50 [4]: 1.5 nM
- fold (off-rate vs DLLBII101G08) [5]: 27 fold
- koff [5]: 6.7e-05 s⁻¹
- IC50 [6]: 1.5 nM
- Kd [7]: 0.3 nM
- koff [7]: 6.8e-05 s⁻¹
- kon [7]: 220000 M⁻¹ s⁻¹

B13: DLLBII130F06 (VHH, not shown: small tags and cut ends)
VHH: EVQLVESGGGLVQAGGSLRLSCAASGRTFSSYAMAWYRQAPGKEREYVAAIRWSGGTAYYADSVQGRFTISRDNAKNTVYLQMNSLKPEDTAVYYCANRAPDTRLAPYEYDYWGQGTQVTVSS
- Kd [2]: 0.4 nM
- fold (off-rate vs DLLBII101G08) [3]: 19 fold
- koff [3]: 0.00026 s⁻¹
- IC50 [4]: 1.3 nM
- fold (off-rate vs DLLBII101G08) [5]: 27 fold
- koff [5]: 6.5e-05 s⁻¹
- IC50 [6]: 1.3 nM
- Kd [7]: 0.4 nM
- koff [7]: 8e-05 s⁻¹
- kon [7]: 200000 M⁻¹ s⁻¹

B14: DLLBII133A05 (VHH)
VHH: EVQLVESGGGLVQPGGSLRLSCAASGFTFGSYDMSWVRRSPGKGPEWVSAINSGGGSTFYTDYVKGRFTISRDNAKNTLYLQMNSLKPEDTAVYYCAADRYIWARQGEYWGAYQYDYWGQGTQVTVSS
- IC50 [4]: 2.1 nM
- IC50 [6]: 2.1 nM

B15: DLLBII104A03 (VHH)
VHH: EVQLVESGGGLVQAGGSLRLSCAASGDIPRIAAMGWYRQAPGKQRELVATVSNAATTRYADSAKGRFTISRDNAKTVSLQMDNLKPEDTGVYYCYSLATTVTPSWVNYWGQGTQVTVSS
- % inh [8]: 83%
- % inh [9]: 86%

B16: DLLBII104B05 (VHH)
VHH: EVQLVESGGGSVQAGGSLRLSCAASGSISRIDVMAWYRQAPGKERELVASISSGGSTNYADSVKGRFTISREYFKNMMYLQMNSLKFEDTAVYYCNADSRRGGVGNFFRSWGQGTQVTVSS
- % inh [8]: 78%
- % inh [9]: 86%

B17: DLLBII107C03 (VHH)
VHH: EVQLVESGGGLVQPGGSLRLSCEVSGSIGSVSDMRWYRQAPGLQYELVARITSGSITDYSDSVKGRFTISRDNAKNTVYLQMNSLKPEDTAVYYCNADVQHSAWLKPLTYWGQGTQVTVSS
- % inh [8]: 80%
- % inh [9]: 75%

B18: DLLBII80E08 (VHH)
VHH: EVQLVESGGGLVQAGGSLTLSCAASGGTFTTYAMGWFRQAPGKEREFVAAVSRFGVSWDYADSVKGRFTISRDNTANTLKLRMNSLKADDTAVYYCAAGGRSFLPFVPAYWGQGTQVTVSS
- % inh [8]: 82%
- % inh [9]: 71%
